In article PMC7619190:

Assays:
[1] = molecular target: human SRC SH2 domain (Gln147-Lys252) C188A (human) (UniProt P12931); experiment: ITC; peptide (400 uM) titrated into SRC SH2 (40 uM) in the cell, 25 C, MicroCal PEAQ-ITC Automated; SH2 domain pretreated with 0.1 mM PV (oxidised)
[2] = molecular target: human SRC SH2 domain (Gln147-Lys252) C188A (human) (UniProt P12931); experiment: ITC; peptide (400 uM) titrated into SRC SH2 (40 uM) in the cell, 25 C, MicroCal PEAQ-ITC Automated; SH2 domain pretreated with 1 mM TCEP (reducing conditions)

fold lower affinity against reducing conditions [1]: 3.5 fold | fold increase in affinity against SH2 WT [2]: 5 fold
Substance: SRC C-terminal phosphopeptide (spanning pY530)
